Measured values from publication PMC12756740, “A GH42 β‑Galactosidase from the Human Isolate Bifidobacterium breve DSM 20213: Biochemical and Transgalactosylation Properties Reveal the Potential for Galacto-oligosaccharides Synthesis” (ACS Omega, 2025).

Molecular target: GH42 β-galactosidase Bbreβgal-III from Bifidobacterium breve DSM 20213 (Bifidobacterium breve DSM 20213)
Experiment: SEC-MALS; OMNISEC multidetector GPC/SEC (RI, UV/Vis, RALS 90° + LALS 7°); 22 μL injected at 13.4 mg/mL, 0.5 mL/min, 20 °C, DPBS without Ca2+ and Mg2+; dn/dc 0.185 mL/g; oligomeric state of the enzyme

Substance: GH42 β-galactosidase Bbreβgal-III from Bifidobacterium breve DSM 20213 (enzyme)
- stoichiometry N: 3
